According to paper PMC5869396 (Toxins, 2018):

B1: Nb113 (expressed from pMECS, C-terminal HA and His6 tags) (VHH)
VHH: QVQLQESGGGLVQPGGSLRLSCAASGFTFSSYYMSWVRQAPGKGPEWVSGINTGGVGTRYADSVKGRFTISRDNAKNTLYLQMNSLKPEDTALYYCAIGEGGNRNYWGQGTQVTVSS
notes: source: E. coli WK6 (pMECS), periplasmic extract, purified (IMAC, SEC)
B2: monovalent Nb113 (expressed from pHEN6c, His6 tag, without the HA tag) (VHH)
VHH: B1 VHH
notes: also called Nb113 monovalent; monomeric Nb113; source: E. coli WK6 (pHEN6c), purified (IMAC, SEC)

What was measured:
[1] = biological target: T1, recombinant Shiga toxin-2a B subunit (rStx2aB), C-terminal 6xHis tag (Escherichia coli O157:H7 EDL933 …); experiment: crystal structure; details: both partners purified
T1 construct: source: E. coli BL21 (pET22b), periplasmic extract, purified (IMAC, SEC); not shown: His6, C-terminal, kept

[2] = biological target: T2, Stx2a holotoxin (Stx2a A subunit with the Stx2a B pentamer) (Escherichia coli, Stx2a strain not …, UniProt P09385;P09386); experiment: pull-down; details: one partner purified
T2 construct: copies: 1 + 5

| Binder | stoichiometry N [1] [per pentamer] | binding result [2] |
| --- | --- | --- |
| B1 | 5 |  |
| B2 |  | binds |
